Source: US6518063

Molecular target: OSF2/CBFA1b (lacks 22 aa of exon 8) deletion of 22 aa encoded by exon 8 (Homo sapiens) (UniProt Q13950)
Assay: cell_activity
Details: p6OSE2-luc, F9 cells

Chain of OSF2/CBFA1b (lacks 22 aa of exon 8) deletion of 22 aa encoded by exon 8 (Homo sapiens) (Q13950 whole entry, stated change not applied): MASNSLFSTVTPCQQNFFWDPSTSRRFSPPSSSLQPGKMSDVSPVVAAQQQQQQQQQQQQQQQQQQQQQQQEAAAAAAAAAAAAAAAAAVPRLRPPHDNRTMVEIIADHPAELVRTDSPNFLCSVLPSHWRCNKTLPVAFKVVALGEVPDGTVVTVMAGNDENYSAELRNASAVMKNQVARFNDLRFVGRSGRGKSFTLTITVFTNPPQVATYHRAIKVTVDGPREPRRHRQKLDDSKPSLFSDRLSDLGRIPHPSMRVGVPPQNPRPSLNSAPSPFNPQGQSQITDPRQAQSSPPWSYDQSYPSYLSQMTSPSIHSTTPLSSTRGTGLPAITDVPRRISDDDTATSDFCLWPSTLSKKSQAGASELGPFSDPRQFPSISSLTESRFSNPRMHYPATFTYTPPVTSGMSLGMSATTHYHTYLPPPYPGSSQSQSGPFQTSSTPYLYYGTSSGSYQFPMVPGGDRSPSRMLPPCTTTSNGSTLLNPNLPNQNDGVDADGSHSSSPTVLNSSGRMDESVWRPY

AGCTGCAATCACCAACCACAGCA (double strand) [Osteocalcin (OG2) OSE2]
activity (fold activation): 40
